From paper PMC9369050
Where “and” joins values, the source holds several entries; their conditions need not be identical. Identical values can stand only once.

Legend:
[1] = target: Bacterial His-tagged Reg-1α (human regenerating islet-derived protein 1-alpha) (human) (UniProt P05451); assay: cross-linking; 10 mM EDC/NHS, up to 30 min (0, 15, 30 min); Reg-1α with inactive calpain-2 at molar ratio 2/1, or Reg-1α alone; 50 mM Hepes pH 7.3, 100 mM NaCl, 1 mM DTT, 1 mM EGTA; SDS-PAGE 4-15% and immunodetection with anti-Reg-1α and anti-calpain-2
[2] = target: Bacterial His-tagged Reg-1α (human regenerating islet-derived protein 1-alpha) (human) (UniProt P05451); assay: SDS-PAGE with immunoblot, no cross-linker; bands of oligomers that persist in SDS-PAGE, detected with anti-Reg-1α (Figure 1C; time 0 of Figure 2A)
[3] = target: Calpain-2-cleaved Reg-1α (Reg-1αΔN1-4) (human); assay: as above

Row | Substance | stoichiometry N [1] | stoichiometry N [2] | stoichiometry N [3]
1 | Bacterial His-tagged Reg-1α (human regenerating islet-derived protein 1-alpha) (from UniProt P05451 23-166) (natural protein) | 4 | 2 and 3 | 
2 | Calpain-2-cleaved Reg-1α (Reg-1αΔN1-4) (domain or fragment) |  |  | 2
